{
  "source": "patent US9765303B2",
  "about": "“Method for the production of differentiated respiratory epithelial cells” (MEDIZINISCHE HOCHSCHULE HANNOVER, priority 2011, dated 2017)",
  "test_system": "surfactant protein C (SP-C)",
  "experiment": "qRT-PCR of SP-C mRNA in day 24 pluripotent stem cell differentiation cultures",
  "format": "cell-based, murine",
  "conditions": "KGF alone; start on day 0 of differentiation compared to later supplementation",
  "description": "This method is based on our 2008 published differentiation protocol^3. To initiate embryoid body (EB) formation “hanging drops” composed of 6×10^2 cells in 20 μl of differentiation medium were generated (day 0 of differentiation). At day 3 of differentiation, EBs (100 EBs/dish) were transferred to non-adherent petri dishes (Greiner) and cultivated in suspension for two additional days. At day 5 of differentiation, 10 EBs/well were seeded on a 0.1% gelatin-coated 6-well culture dish and cultured until day 24 of differentiation. From day 0 to 7 the basal differentiation medium was composed of Iscove's Modified Dulbecco's Medium (IMDM, Invitrogen), 0.2 mM L-glutamine, 0.1 mM β-mercaptoethanol, 0.1 mM non-essential amino acid stock supplemented with 15% FCS and from day 7 to 24 supplemented with 15% serum replacement (Knockout™ SR, Invitrogen). […]\nThe differentiation medium was replaced by fresh medium every two to three days. The differentiation was stopped on day 24 and differentiation cultures were analyzed for the presence of lung epithelial cells.\nqRT-PCR was used to quantify mRNA expression of typical lung epithelial markers, in particular for bronchial/bronchiolar and alveolar epithelial cells. […]",
  "data": [
    {"molecule": "KGF: recombinant human keratinocyte growth factor (Amgen), also referred to as fibroblast growth factor-7 (protein, UniProt P21781 32-194, looked up) Fibroblast growth factor 7: CNDMTPEQMATNVNCSSPERHTRSYDYMEGGDIRVRRLFCRTQWYLRIDKRGKVKGTQEMKNNYNIMEIRTVAVGIVAIKGVESEFYLAMNKEGKLYAKKECNEDCNFKELILENHYNTYASAKWTHNGGEMFVALNQKGIPVRGKKTKKEQKTAHFLPMAIT", "values": [
      {"measurement": "SP-C expression by start of KGF supplementation", "value": "highest expression"}
    ]}
  ]
}
